# Source: the DeepSol protein solubility set
# Experiment: soluble on expression in E. coli; label from the status in PepcDB or PDB records
row,Sequence,soluble on expression in E. coli
1,MHEYPITKRIIEISQEHANKHNAKEVKQINLVVGDYSGYVASSIELYFGIIAEGTVCENAKLNIKRVKPMLKCNECESLFVRKPFSFECPYCGGQGSPTEIGHEFYIESIEI,soluble
2,MHHHHHHAMNHETFLKRAVTLACEGVNAGIGGPFGAVIVKDGAIIAEGQNNVTTSNDPTAHAEVTAIRKACKVLGAYQLDDCILYTSCEPCPMCLGAIYWARPKAVFYAAEHTDAAEAGFDDSFIYKEIDKPAEERTIPFYQVTLTEHLSPFQAWRNFANKKEY,soluble
3,MHHHHHHSSGRENLYFQGPPARVRVAVRLRPFVDGTAGASDPPCVRGMDSCSLEIANWRNHQETLKYQFDAFYGERSTQQDIYAGSVQPILRHLLEGQNASVLAYGPTGAGKTHTMLGSPEQPGVIPRALMDLLQLTREEGAEGRPWALSVTMSYLEIYQEKVLDLLDPASGDLVIREDCRGNILIPGLSQKPISSFADFERHFLPASRNRTVGATRLNQRSSRSHAVLLVKVDQRERLAPFRQREGKLYLIDLAGSEDNRRTGNKGLRLKESGAINTSLFVLGKVVDALNQGLPRVPYRDSKLTRLLQDSLGGSAHSILIANIAPERRFYLDTVSALNFAARSKEVINRPFTNESLQPHALGPVKLSQKELLGPPEAK,soluble
4,MHHHHHHSSGRENLYFQGVWKSYLYQLQQEAPHPRRITCTCEVENRPKYYGREFHGMISREAADQLLIVAEGSYLIRESQRQPGTYTLALRFGSQTRNFRLYYDGKHFVGEKRFESIHDLVTDGLITLYIETKAAEYIAKMTINPIYEHVGYTTLNREPAYKKHMPVLKETHDERDSTGQDGVSEKRLTSLVRRATLKENEQIPKYEKIHNFKVHTFRGPHWCEYCANFMWGLIAQGVKCADCGLNVHKQCSKMVPNDCKPDLKHVKKVYSCDLTTLVKAHTTKRPMVVDMCIREIESRGLNSEGLYRVSGFSDLIEDVKMAFDRDGEKADISVNMYEDINIITGALKLYFRDLPIPLITYDAYPKFIESAKIMDPDEQLETLHEALKLLPPAHCETLRYLMAHLKRVTLHEKENLMNAENLGIVFGPTLMRSPELDAMAALNDIRYQRLVVELLIKNEDILF,soluble
5,MHHHHHHSSGVDLGTENLYFQSMLNTSGSGTILIDLSPDDKEFQSVEEEMQSTVREHRDGGHAGGIFNRYNILKIQKVCNKKLWERYTHRRKEVSEENHNHANERMLFHGSPFVNAIIHKGFDERHAYIGGMFGAGIYFAENSSKSNQYVYGIGGGTGCPVHKDRSCYICHRQLLFCRVTLGKSFLQFSAMKMAHSPPGHHSVTGRPSVNGLALAEYVIYRGEQAYPEYLITYQIMRPEG,soluble
6,MHHHHHHSSGVDLGTENLYFQSMSHQVGVAGAVFDESTRKILVVQDRNKLKNMWKFPGGLSEPEEDIGDTAVREVFEETGIKSEFRSVLSIRQQHTNPGAFGKSDMYIICRLKPYSFTINFCQEECLRCEWMDLNDLAKTENTTPITSRVARLLLYGYREGFDKIDLTVEELPAVYTGLFYKLYHKELPENYKTMKGID,soluble
7,MHHHHHHSSGVDLGTENLYFQSNAMLDPLDILTNIDDVLPYYQAIFSAEEQKVVGYEVLGRILADSEIQSLGPFFLDAGIPEEYKLEVDNRIIRQALDRFLEADSDLLIFMNQDANLLMLDHGESFLELLKEYEAKGIELHRFVLEITEHNFEGDIEQLYHMLAYYRTYGIKIAVDNIGKESSNLDRIALLSPDLLKIDLQALKVSQPSPSYEHVLYSISLLARKIGAALLYEDIEANFQLQYAWRNGGRYFQGYYLVSPSETFLERDVLKQRLKTEFHQFITHEKKKLETVYEHSEQFYKRVHQAVTSLRKNNLSSDDDFIKKLAEELTDCSFRIYMCDEEGDQLTGNVFKQDGEWIYQPEYAEKNWSWRPYFLENIMRMRNLRKGFFSDLYSDLETGEMIRTFSYPMDDQMYLFIDLPYSYLYEQDGLI,soluble
8,MHHHHHHSSGVDLGTENLYFQSNAMMKAYQREFIEFALEKQVLKFGEFTLKSGRKSPYFFNAGLFNTGRDLARLGRFYAAALVDSGIEFDVLFGPAYKGIPIATTTAVALADHHDVDTPYCFNRKEAKNHGEGGNLVGSKLEGRVMLVDDVITAGTAIRESMELIQANKADLAGVLVAIDRQEKGKGELSAIQEVERDFGCAVISIVSLTDLITYLEQQGNNTEHLEAVKAYRAQYGI,soluble
9,MHHHHHHSSRQEPPKIHLDCPGRIPDTIVVVAGNKLRLDVPISGDPAPTVIWQKAITQGNKAPARPAPDAPEDTGDSDEWVFDKKLLCETEGRVRVETTKDRSIFTVEGAEKEDEGVYTVTVKNPVGEDQVNLTVKVID,soluble
